This is an account of results in article PMC2821871 (Biochemistry, 2010).

Test [1] has as its target CR16-18 of LRP (P. pastoris) (human, UniProt Q07954 2731-2857). Nature of the test: SPR.
The target of another test is T1, CR17 of LRP (human, UniProt Q07954 2770-2817).
T1 chain (looked up): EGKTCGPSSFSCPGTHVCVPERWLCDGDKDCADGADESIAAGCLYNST

No end group written: not given here. *: point of attachment. Biotin = O=C1N[C@H]2[C@H](CS[C@H]2CCCCC(=O)*)N1

Sequence of CR16-18 of LRP (P. pastoris) (Q07954 2731-2857): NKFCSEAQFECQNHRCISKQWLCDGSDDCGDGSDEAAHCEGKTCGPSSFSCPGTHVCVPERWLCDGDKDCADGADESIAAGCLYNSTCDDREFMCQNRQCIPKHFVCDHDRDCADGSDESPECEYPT

Molecule Biotin-LRKLRKRLLRDADDLLRKLRKRLLRDADDL (peptide, UniProt P02649 159-173, looked up) [biotinylated ApoE(141-155)^2 peptide] gave a Kd in test [1] of about 0.0002 mM.
For TEELRVRLASHLRALRARLL (peptide, UniProt P02649 148-167, looked up) [Ub-ApoE(130-149)(K143/146A)], in the test with CR17 of LRP, the “KD (Global)” value was 3.84 ± 0.801 mM, the “KD (Largest)” value amounted to 2.76 ± 0.361 mM, the “KD (Sum)” value was 3.78 ± 0.375 mM and the Kd stood at 3.46 mM.
In the case of TEELRVRLASH (peptide, UniProt P02649 148-158, looked up) [Ub-ApoE(130-140)], in the test with CR17 of LRP, the Kd was over 5 mM.

By Kd is commonly meant the free concentration of one partner at which half of the binding sites on the other are occupied at equilibrium, for simple one-to-one binding.
